Assays:
[1] = biological target: T1, mouse CD39 (full length, on CHOK1-mCD39 cells) (mouse, UniProt P55772 1-510); assay: FACS, CHOK1-mCD39 cells
T1 construct: whole, on cells
T1 sequence (looked up): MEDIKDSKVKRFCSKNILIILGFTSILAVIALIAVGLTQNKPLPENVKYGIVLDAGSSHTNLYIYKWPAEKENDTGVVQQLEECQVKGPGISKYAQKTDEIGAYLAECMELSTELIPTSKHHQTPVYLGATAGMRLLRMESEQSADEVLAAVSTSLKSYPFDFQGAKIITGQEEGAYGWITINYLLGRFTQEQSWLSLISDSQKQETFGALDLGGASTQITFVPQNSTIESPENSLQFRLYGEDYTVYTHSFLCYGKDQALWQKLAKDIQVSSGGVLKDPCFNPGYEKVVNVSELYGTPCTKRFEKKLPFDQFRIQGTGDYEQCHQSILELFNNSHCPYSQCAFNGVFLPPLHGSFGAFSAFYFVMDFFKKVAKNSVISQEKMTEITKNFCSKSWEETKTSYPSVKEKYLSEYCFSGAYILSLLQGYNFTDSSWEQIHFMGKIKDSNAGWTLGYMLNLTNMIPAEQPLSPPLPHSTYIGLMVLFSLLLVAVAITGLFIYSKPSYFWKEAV
Excerpt: (§1) FACS were used to determine binding of the antibodies to cell lines expressing CD39 naturally (SK-MEL-28) or recombinantly (CHOK1-hCD39, CHOK1-cynoCD39, and CHOK1-mCD39), or with cells lacking CD39 expression (CHOK1-blank) as a negative control.
(§2) CHOK1-hCD39, CHOK1-cCD39, CHOK1-mCD39 and CHOK1-blank cells were maintained in culture medium according to ATCC procedure. Cells were collected and re-suspended in blocking buffer at a density of 3×10⁶ cells/ml. Cells were transferred to 96 well FACS plates at 100 μl/well (3×10⁵ cells/well), the plates were centrifuged and washed twice with FACS buffer (PBS, 1% FBS, 0.05% Tween-20). 4-folds serial dilution of anti-CD39 antibodies were prepared in FACS buffer starting from 30 μg/ml. Reference antibody 9-8B and mouse/human control IgG were used as positive and negative controls, respectively. Cells were re-suspended in 100 μL/well diluted antibodies, and the plates were incubated at 4° C. for 60 min. […] The plates were washed with FACS buffer, and cells were re-suspended in 100 μL/well of PBS. Cells were then analyzed with FACSVerse™ and mean fluorescence intensity were determined. Full binding curves were generated on the CD39 expressing cells by testing a range of antibody concentrations. Apparent affinity was determined for each antibody using Prism software.

[2] = biological target: T2, human CD39 (full length, on cells) (human, UniProt P49961 1-510); assay: cell-based or functional assay
T2 sequence: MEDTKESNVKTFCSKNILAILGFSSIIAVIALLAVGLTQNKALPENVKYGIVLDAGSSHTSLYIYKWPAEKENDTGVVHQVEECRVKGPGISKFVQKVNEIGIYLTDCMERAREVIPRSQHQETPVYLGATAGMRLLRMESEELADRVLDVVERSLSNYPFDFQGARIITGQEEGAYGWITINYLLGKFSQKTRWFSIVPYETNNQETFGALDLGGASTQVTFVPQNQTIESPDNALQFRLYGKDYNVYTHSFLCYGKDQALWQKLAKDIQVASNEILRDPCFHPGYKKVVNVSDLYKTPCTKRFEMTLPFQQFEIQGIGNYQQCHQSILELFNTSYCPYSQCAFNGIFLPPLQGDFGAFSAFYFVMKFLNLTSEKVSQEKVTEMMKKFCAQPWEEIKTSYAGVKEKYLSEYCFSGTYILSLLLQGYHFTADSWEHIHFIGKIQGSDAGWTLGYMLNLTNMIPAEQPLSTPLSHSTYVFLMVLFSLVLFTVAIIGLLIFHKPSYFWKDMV

[3] = biological target: T3, cynomolgus CD39 (full length, on CHOK1-cynoCD39 cells) (cynomolgus monkey, UniProt A0A7N9DGH8 1-510); assay: FACS, CHOK1-cynoCD39 cells
T3 construct: whole, on cells; also called cCD39
T3 sequence: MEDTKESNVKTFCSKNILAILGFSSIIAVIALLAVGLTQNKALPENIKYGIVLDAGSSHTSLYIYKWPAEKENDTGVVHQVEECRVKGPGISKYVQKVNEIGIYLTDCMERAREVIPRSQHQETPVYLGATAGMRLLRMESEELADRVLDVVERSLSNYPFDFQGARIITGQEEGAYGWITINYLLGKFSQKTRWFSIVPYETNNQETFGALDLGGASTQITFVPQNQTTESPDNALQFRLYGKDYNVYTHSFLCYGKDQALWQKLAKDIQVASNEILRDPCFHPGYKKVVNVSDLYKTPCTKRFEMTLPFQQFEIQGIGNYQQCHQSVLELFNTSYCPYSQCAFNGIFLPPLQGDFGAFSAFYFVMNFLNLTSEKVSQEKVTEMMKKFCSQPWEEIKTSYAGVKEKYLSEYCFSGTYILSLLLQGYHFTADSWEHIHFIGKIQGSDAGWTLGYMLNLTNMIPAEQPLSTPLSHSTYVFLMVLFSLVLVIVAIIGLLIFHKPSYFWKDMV
Excerpt: as §1, §2

[4] = biological target: T2, human CD39 (full length, on cells); assay: FACS, CHOK1-hCD39 cells
Excerpt: as §1, §2

[5] = biological target: T2, human CD39 (full length, on cells); assay: FACS, SK-MEL-28 cells
Method: as §1
(§3) Similarly, human CD39 expressing cells SK-MEL-5, SK-MEL-28 or MOLP-8, were incubated with a gradient concentration of anti-CD39 antibodies for 30 minutes at 4° C. Cells were washed 3 times using FACS buffer and next incubated with fluorescence labelled secondary antibody (goat-anti-mouse IgG or goat anti-human IgG) for 30 minutes at 4° C. Cells were washed 3 times and then re-suspended in FACS buffer and analyzed by flow cytometry analysis on BD Celesta. Data plotted and analyzed using GraphPad Prism 8.02.

[6] = biological target: T4, human CD39 (protein; form not stated) (human, UniProt P49961 38-478, limits assumed); assay: Octet (BLI), antibody on sensor, CD39 in solution
T4 construct: also called ENTPD1; ENTPDase 1
T4 sequence: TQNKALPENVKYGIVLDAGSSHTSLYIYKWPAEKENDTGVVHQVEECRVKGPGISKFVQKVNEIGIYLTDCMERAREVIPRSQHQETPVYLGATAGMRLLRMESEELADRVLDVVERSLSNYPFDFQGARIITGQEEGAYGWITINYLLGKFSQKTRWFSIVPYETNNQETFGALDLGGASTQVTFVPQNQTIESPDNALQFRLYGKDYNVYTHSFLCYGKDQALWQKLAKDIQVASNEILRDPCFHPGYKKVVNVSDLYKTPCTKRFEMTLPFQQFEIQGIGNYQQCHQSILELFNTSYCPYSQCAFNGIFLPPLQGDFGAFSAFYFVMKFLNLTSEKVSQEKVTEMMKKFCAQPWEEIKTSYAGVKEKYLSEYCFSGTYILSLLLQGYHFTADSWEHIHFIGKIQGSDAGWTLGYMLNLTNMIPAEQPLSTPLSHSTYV
Method: Briefly, the antibodies were coupled on sensors and then the sensors were dipped into CD39 gradients (start at 200 nM, with 2-fold dilution and totally 8 doses). Their binding responses were measured in real-time and results were fit globally.

[7] = biological target: T2, human CD39 (full length, on cells); assay: FACS on MOLP-8 cells, MFI
Method: as §3
The binding affinity of the humanized antibodies for c14 was determined by FACS using MOLP-8 cells expressing human CD39, using similar methods as described in Example 3.2.

B1: mAb35 (antibody, V domains shown)
VH: EVRLQQSGAELVKPGASVKLSCTASGFNIEDTYVHWMKQRPEQGLEWIGRIDPAIDNSKYDPKFQGKATITAVSSSNTAYLQLSSLTSEDTAVYYCALYDGYNVYAMDYWGQGTSVTVSS
VL: DIVMTQAAFSNPVTLGTSASISCRSSKNLLHSNGITYLYWYLQRPGQSPQLLIYRASTLASGVPNRFSGSESGTDFTLRISRVEAEDVGVYYCAQLLELPHTFGGGTKLEIK
notes: mouse hybridoma antibody
Does B1 bind [1]?
Result: no binding (tested: 30 µg/ml highest concentration)

What about the “SK-MEL-28 cell based ATPase inhibition % at 10 nM” value [2] of the same binder?
Its value is 56%.

And the EC50 [3]?
Its EC50 is 5.3 nM.

What about the EC50 [4] of the same binder?
Its EC50 is 5.2 nM.

What about the EC50 [5] of the same binder?
The EC50 was 1.8 nM.

B2: hu14.H1L2 (antibody, V domains shown)
VH: EVQLVESGGGLVKPGGSLRLSCAASGFTFSKYWMNWVRQAPGKGLEWVGEIRLKSNKYGTHYAESVKGRFTISRDDSKNTLYLQMNSLKTEDTAVYYCTTQLDLYWFFDVWGQGTTVTVSS
VL: EIVLTQSPATLSLSPGERATLSCRASQSISDYLHWYQQKPGQSPRLLIYYASQSISGIPARFSGSGSGTDFTLTISSLEPEDFAVYFCQNGHSLPLTFGGGTKLEIK
notes: humanized c14
How did the Kd [6] turn out when B2 was run?
Its Kd is 0.839 nM.

And the koff [6]?
The koff was 0.000326 s⁻¹.

And the kon [6]?
The kon was 389000 M⁻¹ s⁻¹.

B3: hu14.H2L4 (antibody, V domains shown)
VH: EVQLVESGGGLVKPGGSLRLSCAASGFTFSKYWMNWVRQSPGKGLEWVGEIRLKSNKYGTHYAESVKGRFTISRDDSKNTLYLQMNSLKTEDTAVYYCTTQLDLYWFFDVWGQGTTVTVSS
VL: EIVMTQSPATLSVSPGERVTLSCRASQSISDYLHWYQQKPGQSPRLLIYYASQSISGIPARFSGSGSGTDFTLTISSVEPEDFAVYFCQNGHSLPLTFGGGTKLEIK
notes: humanized c14
Does B3 bind [7]?
Result: binds

B4: hu14.H2L3 (antibody, V domains shown)
VH: EVQLVESGGGLVKPGGSLRLSCAASGFTFSKYWMNWVRQSPGKGLEWVGEIRLKSNKYGTHYAESVKGRFTISRDDSKNTLYLQMNSLKTEDTAVYYCTTQLDLYWFFDVWGQGTTVTVSS
VL: EIVLTQSPATLSVSPGERATLSCRASQSISDYLHWYQQKPGQSPRLLIYYASQSISGIPARFSGSGSGTDFTLTISSVEPEDFAVYFCQNGHSLPLTFGGGTKLEIK
notes: humanized c14
Does B4 bind [7]?
Result: binds

B5: hu14.H2L1 (antibody, V domains shown)
VH: EVQLVESGGGLVKPGGSLRLSCAASGFTFSKYWMNWVRQSPGKGLEWVGEIRLKSNKYGTHYAESVKGRFTISRDDSKNTLYLQMNSLKTEDTAVYYCTTQLDLYWFFDVWGQGTTVTVSS
VL: EIVLTQSPATLSLSPGERATLSCRASQSISDYLHWYQQKPGQAPRLLIYYASQSISGIPARFSGSGSGTDFTLTISSLEPEDFAVYYCQNGHSLPLTFGGGTKLEIK
notes: humanized c14
Does B5 bind [7]?
Result: binds

B6: hu14.H1L4 (antibody, V domains shown)
VH: EVQLVESGGGLVKPGGSLRLSCAASGFTFSKYWMNWVRQAPGKGLEWVGEIRLKSNKYGTHYAESVKGRFTISRDDSKNTLYLQMNSLKTEDTAVYYCTTQLDLYWFFDVWGQGTTVTVSS
VL: EIVMTQSPATLSVSPGERVTLSCRASQSISDYLHWYQQKPGQSPRLLIYYASQSISGIPARFSGSGSGTDFTLTISSVEPEDFAVYFCQNGHSLPLTFGGGTKLEIK
notes: humanized c14
Does B6 bind [7]?
Result: binds

B7: hu14.H1L3 (antibody, V domains shown)
VH: EVQLVESGGGLVKPGGSLRLSCAASGFTFSKYWMNWVRQAPGKGLEWVGEIRLKSNKYGTHYAESVKGRFTISRDDSKNTLYLQMNSLKTEDTAVYYCTTQLDLYWFFDVWGQGTTVTVSS
VL: EIVLTQSPATLSVSPGERATLSCRASQSISDYLHWYQQKPGQSPRLLIYYASQSISGIPARFSGSGSGTDFTLTISSVEPEDFAVYFCQNGHSLPLTFGGGTKLEIK
notes: humanized c14
Does B7 bind [7]?
Result: binds

B8: mAb13 (antibody, V domains shown)
VH: QIQLVQSGPELKKPGETVKISCKASGYTFTNYGMNWVKQAPGKGLRWMGLINTYTGEPTYADDFKDRFAFSLETSASTAFLQINNLKDEDMATYFCARKGIYYDYVWFFDVWGAGTTVTVSS
VL: DIQMTQSPSSLSTSLGGKVSITCKASQDINRYIAWYQHKPGKGPRLLIHYTSTLLPGIPSRFSGSGSGRDYSFSISNLEPEDIATYFCLQYSNLLTFGGGTKLEIK
notes: mouse hybridoma antibody
Which results are given for B8?
binding result [1]: no binding (tested: 30 µg/ml highest concentration); SK-MEL-28 cell based ATPase inhibition % at 10 nM [2]: 43%; EC50 [3]: 21 nM; EC50 [4]: 30 nM; EC50 [5]: 11 nM

B9: mAb34 (antibody, V domains shown)
VH: EIQVQQSGPELVKPGASVKVSCKASGYSFTDYNMYWVKQSHGKSLEWIGFIDPYNGYTSYNQKFKGKATLTIDKSSSTAFMHLNSLTSEDSAVYYCAIYGYDDAYYFDYWGQGTTLTVSS
VL: QIVLTQSPAIMSASPGEKVTITCSATSSVSYMHWFRQKPGTSPKLWIYSTSNLASGVPARFSGSGSGTSYSLTISRMAAEDAATYYCQQRITYPFTFGSGTKLEIT
notes: mouse hybridoma antibody
Does B9 bind [1]?
Result: no binding (tested: 30 µg/ml highest concentration)

And the “SK-MEL-28 cell based ATPase inhibition % at 10 nM” value [2]?
Its value is 72%.

What about the EC50 [3] of the same binder?
The EC50 was 3.1 nM.

What about the EC50 [4] of the same binder?
Its EC50 is 4.4 nM.

And the EC50 [5]?
Its EC50 is 4.7 nM.

— US20210388105A1 (ELPISCIENCE SUZHOU BIOPHARMA, published 2021)
